Reference: the supplement of paper PMC12764529

assay: folding stability dG unfold (combined trypsin and chymotrypsin); higher = more stable
Experimental: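 Folding stability of de novo designed mini-proteins (<80 aa, no Cys; designed by TrROS, TrMRF, ProteinMPNN and the joint model) was measured by cDNA display proteolysis with trypsin and chymotrypsin. Each protease was used at 11 concentrations in a threefold dilution series plus a no-protease condition. K50 was inferred by Bayesian fitting of sequencing counts, and dG unfold was derived against a sequence-predicted unfolded-state K50 (Tsuboyama et al. method). Sequences shown include variable-length N-terminal GS-type padding (SAGGSAGG...) inside a display construct carrying a PA tag. Rows were kept only if the AF2 dimer inter-PAE was >15, to exclude likely homo-oligomers.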

Folding stability dG unfold, < -1 kcal/mol:
SAGGSAGGSAGGKKKKIKLFIDHYFDGPPNINPEKIEKELKEKGIDVEVVLNALPKENKKSAGGSAGGSAGG [r7_355_TrMRF]
SAGGSAGGSAGGSRIHIEPDNNNYRIKNRNPGGKKEEFPFDSLEDLKDLPPGFPVEIYDSAGGSAGGSAGGS [r4_447_TrROS]
SAGGSAGGSAGGNPGQEVTYQIKIPIRDKNGEPDWKIDIPVTMDTPQDADRFAKEIAKRSAGGSAGGSAGGS [r10_57_TrROS]
SAGGGMEIVTTKESTLPEDVKVKESTTTFPDGTSIKTVTLTSPKPGDTKTITIPVKPGGPGLSTTVTESAGG [r13_323_JUSTAS]
SAGGSAGGSGGLGGEPISVRTELVTVPVELEEEVLLPGGVPLPRRRTVERVVAVTTRVPPGAALSAGGSAGG [r6_526_JUSTAS]
SAGGFNLKIMPMRMPRRKYDPEDGEPKKPEPVKMWMIQVEAKPGQTVSEIADELQKEFPGDNIMVMPSAGGS [r8_30_TrROS]
SAGGSAGGSAGGSSKLVTITRGNSKTLLTLKPDEPVLLPGSDSSVSVNEGSAVNISGNKLSAGGSAGGSAGG [r7_853_JUSTAS]
SAGGSAGGSMEMETYPLNGFTVMVMRNPNDGRETVQIFMPDNGKPIQMPPEDLQQDPDLIDALSAGGSAGGS [r12_817_TrROS]
SAGGKELVEKLLAEGGVKPVKIETKEGKPKIEVLAPKPELGKKLVEKLKKDPRIEEVNIKPYKPEELSAGGS [r16_671_TrMRF]
SAGGIKPGQQWRIRSPNGPIPIRVRGGQIKIRNNDNGKKRTYPVPGDTIEEIVDDLRDHPGMEIEPLSAGGS [r16_583_TrROS]
SAGGSAGGSMKYLVRFPEGGSLPFPDGSSVPMKPGEVLEVESPADVEALKKLAPGRDIEVEPVSAGGSAGGS [r12_987_TrMRF]
SAGGSAGGSAMTLLSEKEVPGTDLTIKYVEEKLPGERVIRTLTIKKNSVVEEKEFPVGELPSAGGSAGGSAG [r3_48_JUSTAS]
SAGGSAGGSEKYRVRFPDGQPLPFPNGKSHPMKPGEEMEIESPEDKDRLKDHFPGFPVEVEPLSAGGSAGGS [r12_987_TrROS]
SAGGSAPENDPWVWRVKIPYKKKNPNGEPERREREITFPFKSPEDAENFRDALREDGAEIEPVEPMSAGGSA [r15_117_TrROS]
SAGGSAGGSAMSPSLPGKYEVLLTDPRPGVGPPVTRRVTLTPEEIEATIPPGAGREVVELPSAGGSAGGSAG [r3_223_JUSTAS]
SAGGSAGGSSMPSDVPVDIPVKVTRTVPNGPTSEEELVLSTTRPDASIEEVLEELKKKGWTIESAGGSAGGS [r20_27_JUSTAS]
SAGGSAGGSAGMTPEEAEKEAAEKIKNELIAKGYPEAKVEVKSPVKVDEVNNTFTLDIDIKKSAGGSAGGSA [r18_517_JUSTAS]
SAGGSAGGSAGGMIHIDPTPNGWKASVMNPNNGKPREIPFPPDNIPKLIPKGIDYVHIHPSAGGSAGGSAGG [r7_266_TrROS]
SAGGSAGGSAGGSPVYTLERTLPDGRPVRIEISGDEATITLESPEGGERTEKVSRSEILESAGGSAGGSAGG [r7_653_JUSTAS]
SAGGSAGGSAGGIRLSPEFRELLKDAPPSPGQKREINFPNGYQITYTVKGNKIDDIEWTPSAGGSAGGSAGG [r7_611_TrROS]
SAGGSAGGSAGGSLALVRFPGDDRLFSVPVPEDLEAELVLPTPDGRPVGVRLFRVRDPRESAGGSAGGSAGG [r7_19_TrMRF]
SAGGSAGGSAGMKLEELAKEAEERYREEGGDAVIDLVVEREDDKKEPFILEIGKKGLKIESAGGSAGGSAGG [r11_954_TrMRF]
SAGGSAGGSAPFTAKEAADYAAWKIQKRLKKEGNPDKEITIKAPIEWDPEDGIFRAKIQIEYSAGGSAGGSA [r18_517_TrROS]
SAGGSAGGSAGTVTEKTSIPDPNSDNSLTVTKTPNSITMTNPKTGDVIISNNSTVTKIKKSAGGSAGGSAGG [r17_544_JUSTAS]
SAGGSAGGSAGSNKVSPVITLEEDPDGTVTRTVTLKINTPEGKTLTTTSTDPLSPDSALKRSAGGSAGGSAG [r3_180_JUSTAS]
SAGGTVEELLRRVPFVEEAVVDVDSGVAYVRVPDRYYVVRVPLVAEPDEDGVLRPRTPVEVEPFAPESAGGS [r16_65_TrMRF]
SAGGSAGGSSDIKIYEIPEKGEIVVERPPSEKVTIDINNHPLEGSLTPLPGNKYLWKVKIKSPSAGGSAGGS [r12_970_JUSTAS]
SAGGSAGGSAREITIMVPPDDPNLTIEEAKDLLQPWGIKKVEIEPHPDGYYIVEIRVPPGLSAGGSAGGSAG [r3_335_TrROS]
SAGGSAGGSGSGSVTVPVTSTDPVTGKPSVSTVTVSLDVVPPPPVPATVFFDPVRGRRSTDLGGSAGGSAGG [r6_926_JUSTAS]
SAGGDNRQEREFHIPDPDGEDINITMEYNPSNGRTRVKVQPPEDGKPIKEIPADEMPPEAQDILKKISAGGS [r8_32_TrROS]
SAGGGPPLRVSTESEVYEDPETGVTYVRRRIHVEGGLVVEEELKETVNPEDPGAEVTLVSRRESPALSAGGS [r8_241_JUSTAS]
SAGGSAGGSSPKRTIEITLPKDASEEELQATANAIAKELGAPNVQVEVSPVPEDYRLVKVIVESAGGSAGGS [r20_208_JUSTAS]
SAGGSAGGSSYTLVRVVEHPDSVVEYYKAPDGTVIVKRNDEEIEIPPSVPASSLPEDADVVLESAGGSAGGS [r12_594_JUSTAS]
SAGGSAGGSAGGDNIKIDIDFDPGYGVFTSKIYPPNGGPISDLSIKIPPMSPEDLDKFKSAGGSAGGSAGGS [r10_717_TrROS]
SAGGSAGGSPIPVPLVIFFPDSETTEIVPATPELFEALAAELAALGPVVRRGPERTMTITVPRSAGGSAGGS [r12_292_JUSTAS]
SAGGSAGGSHWAEELAKEAGLKVKIDDMMKNPDGYPYVIVKIKPPDGGKRTVMFDGNQPRIYPSAGGSAGGS [r12_279_TrROS]
SAGGSAGGSAGGMALEPKTVTSTLTVFFPDTGKTYPLTETVFIPTKFNLPLPPFPPETLSAGGSAGGSAGGS [r10_1026_JUSTAS]
SAGGSAGGPKPEIDIEPYPEEGQMYVKIRLPGNGRPITIPVEGPMTPNDPEKAIEEAKDALEKFSAGGSAGG [r6_331_TrROS]
SAGGSAGGSAKTYIIPIKDLGPDENGKYHIDIAVEKVKKLFPDENITSVDIDGFEKIGELAESAGGSAGGSA [r18_72_TrMRF]
SAGGSMTLYVRLPDRTVEADEVTVPPNGPALVRYRITDPEGEEPEIVVEPEELAELFGLTPEEIEGSAGGSA [r2_262_TrMRF]
SAGIKIEWDPDEGYIKIEMPYDSPAEANENIQEIHEKFGLKDVTAERDPNNGTVEHTIRIKNPEALKELSAG [r5_598_TrROS]
SAGGEDIIKELLDQLPPGDKNAVLEFDPPDGKLEPKEPSPGGYMFEPKNPENGEKWTFVIRDDKIEPVSAGG [r13_803_TrROS]
SGKVVGEKTYPVSDGSEGPAKATRDPDSLTFTITNKKGEVIKTIKVPKNAGVEKVFDIKVSPDEFKGLNLSA [r9_215_JUSTAS]
SAGGSAGGSTAEEVAEALGFEEAEVTPTGLVEVRKLPNGGYARAYRYTLKLRSPDGTERTFPISAGGSAGGS [r12_221_TrMRF]
SAGGSMKPSELANLIAEKLREKVDPNKTVRIVLEVGEGPVEFEIPSGKKIDIPENVPIKGYKVEVGSAGGSA [r2_391_TrMRF]
SAGGSAGGSAEEILELFPDLELLEVDPVEPRALVRRSDDSWLRVNLATGEAEEVGPGEAERESAGGSAGGSA [r18_381_TrMRF]
SAGGSAGGSAGWFYRIEIPHPNGRKRTHYVPDPEEAEDELKEEFGIPPENVKIEPIPPNDSAGGSAGGSAGG [r17_169_TrROS]
SAGGSAGGSAGMVRIKITHNNGRKNTFKIPPNITEVKEVEIKLPPELQDNITKVEIEPLDSAGGSAGGSAGG [r17_528_TrROS]
SAGGSAGGSAGGSMTPITTTEEVDPDFKEETIKVKNFPATTTPIPEENKRTTTIPTSLFSAGGSAGGSAGGS [r4_430_JUSTAS]
SAGGSAGGSLKPGAPVMYRIRNPENGRKFPFQIKIKEDGGIDIEYPSNGKTMTIPPDNIEPVPSAGGSAGGS [r12_726_TrROS]
SAGGSAGGSAGGPETRVVYEPLPDGTSKIVEVEAAEDYVTVPVPFPNGGEAVFTVKPGELSAGGSAGGSAGG [r7_829_TrMRF]
SAGGSAGGSAGSEELAKEIEDIAQEQGFPIKDVEIERNPPNGYYSIEVRHKGNPVTIPIPSAGGSAGGSAGG [r11_279_TrROS]
SAGGSAGGMDEKLYITTAEVTVKEDGAPVPSTMTFKSKEEIEKYVKETFPPENVELKITTYPELSAGGSAGG [r6_114_JUSTAS]
SAGGSAGGSAGVPPDAPEVVVTLTLRPPGPDTTVTLTVPAAELPPEAIPPGTVVERAVSPGASAGGSAGGSA [r18_21_JUSTAS]
SAGGIWIDNPDQILDQIKENPNQPRTIQVPMDPDNGQIPPDIKKALKEPGMPVQHDPNGYMTFKIPPSAGGS [r16_335_TrROS]
SAGGDKIQEKLQKEGGFRPTNTEVNGGKPKIHIHWPNPERRKKLKEKLKKDPGIEEVQIQPMDPEDMSAGGS [r16_671_TrROS]
SAGGSAGGSNIKDALDNFPPGYQTDVDPNSGTISVRFPDEGWEHQIEIPAEEGKVEINEWKPYSAGGSAGGS [r12_82_TrROS]
SAGGSAGGDYKLEPDDIEPMPDGWYQVEIEIEQRDPDGEPETRDIPVWMPPGQTAKDMAKWLIKSAGGSAGG [r6_329_TrROS]
